Results: paper PMC2877398 (Structure (London, England : 1993), 2010)
Several values for one entry are separate records, joined by “and”; a condition that tells them apart may be missing. Equal entries are not always repeated.

What was measured:
crystal structure = molecular target: the molecule itself; assay: crystal structure
[1] = molecular target: T1, S. cerevisiae RNA guanylyltransferase Ceg1 (1–459), full length (S. cerevisiae, UniProt Q01159 1-459); assay: SEC
T1 sequence (looked up): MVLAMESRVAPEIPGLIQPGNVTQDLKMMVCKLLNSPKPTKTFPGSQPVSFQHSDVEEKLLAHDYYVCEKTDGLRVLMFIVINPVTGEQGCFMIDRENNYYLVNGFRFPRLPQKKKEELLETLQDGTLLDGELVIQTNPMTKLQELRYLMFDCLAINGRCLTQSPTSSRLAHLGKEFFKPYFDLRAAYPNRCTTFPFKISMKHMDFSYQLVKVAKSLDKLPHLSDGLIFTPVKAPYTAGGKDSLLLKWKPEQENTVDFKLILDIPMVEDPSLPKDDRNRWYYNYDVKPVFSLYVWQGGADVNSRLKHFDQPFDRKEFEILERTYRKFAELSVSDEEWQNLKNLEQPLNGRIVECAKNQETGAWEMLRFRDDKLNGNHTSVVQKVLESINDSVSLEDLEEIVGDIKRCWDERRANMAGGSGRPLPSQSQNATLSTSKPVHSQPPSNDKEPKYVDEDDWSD

B1: S. cerevisiae RNA triphosphatase Cet1 (241–549) (domain or fragment, UniProt O13297 241-549, looked up)
chain: YRNVPIWAQKWKPTIKALQSINVKDLKIDPSFLNIIPDDDLTKSVQDWVYATIYSIAPELRSFIELEMKFGVIIDAKGPDRVNPPVSSQCVFTELDAHLTPNIDASLFKELSKYIRGISEVTENTGKFSIIESQTRDSVYRVGLSTQRPRFLRMSTDIKTGRVGQFIEKRHVAQLLLYSPKDSYDVKISLNLELPVPDNDPPEKYKSQSPISERTKDRVSYIHNDSCTRIDITKVENHNQNSKSRQSETTHEVELEINTPALLNAFDNITNDSKEYASLIRTFLNNGTIIRRKLSSLSYEIFEGSKKVM
Crystal structure
  stoichiometry N: 2 protomers
[1]
  stoichiometry N: 2 Cet1 protomers per Ceg1 (2:1) and 1 Cet1 protomers per Ceg1 (2:2)
